Experimental data: US20090226434A1

Legend:
[1] = biological target: FcγRIIIa (CD16) on Natural Killer (NK) cells (UniProt P08637); assay: FACS on NK cells (CD56+) in PBMCs, antibody 20 µg/ml, FITC anti-human IgG (Fc) detection
[2] = biological target: Positive Control (Table 3); assay: SPR solution competition: soluble CD16a (0-1000 nM) inhibits binding of 10 nM analyte to immobilized His-CD16a
[3] = biological target: afucosylated anti-CCR5 antibody (afucosylated Ab); assay: SPR solution competition: soluble CD16a (0-1000 nM) inhibits binding of 10 nM antibody to immobilized His-CD16a
[4] = biological target: wildtype anti-CCR5 antibody (WT Ab, 8% afucosylated); assay: as above

Sequence of UniProt P08637 (P08637 17-254 limits assumed): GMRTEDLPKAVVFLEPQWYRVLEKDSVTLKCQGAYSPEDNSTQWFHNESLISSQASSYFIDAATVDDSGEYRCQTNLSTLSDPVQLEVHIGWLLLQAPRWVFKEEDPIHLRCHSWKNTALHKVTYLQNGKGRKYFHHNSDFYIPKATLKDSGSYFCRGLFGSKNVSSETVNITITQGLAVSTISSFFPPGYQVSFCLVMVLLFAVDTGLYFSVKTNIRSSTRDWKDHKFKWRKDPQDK

IC50 [2] [nM] | IC50 [3] [nM] | IC50 [4] [nM] | Substance | Bmax compared to 100% Bmax for human IgG1 [1] [%]
 |  |  | human IgG4 (The Binding Site) (antibody) | < 30
10 | 9 | 14 | soluble CD16a (from UniProt P08637 17-208) (receptor) | 
